According to US11994512B2, “Single-cell genomic methods to generate ex vivo cell systems that recapitulate in vivo biology with improved fidelity” (Massachusetts Institute of Technology, priority 2018, dated 2024):

Tested on: intracellular proteome of ENR+CD and ENR organoids
Assay: LC-MS/MS TMT proteomics of ENR+CD versus ENR organoids
Type: cell-based, C57BL/6 mice
Settings: for Average logFC: ENR+CD versus ENR organoids, sample pairs in aggregate (n=4, 2 technical replicates from two biological donors); for M1-1 Log2 Median Normalized / M1-2 Log2 Median Normalized / M2-1 Log2 Median Normalized / M2-2 Log2 Median Normalized: protein abundance ratio ENR+CD versus ENR organoids, LC-MS/MS TMT proteomics; for M1-1 Log2 Median Normalized: sample pair M1-1; for M1-2 Log2 Median Normalized: sample pair M1-2; for M2-1 Log2 Median Normalized: sample pair M2-1; for M2-2 Log2 Median Normalized: sample pair M2-2; for change: up = enriched in ENR+CD, down = enriched in ENR, FDR<0.05 and log fold change cut-off

B1: Q64338 (protein, UniProt Q64338 1-706, looked up)
chain: MESPTKEIEEFESNSLKHLQPEQIEKIWLRLRGLRKYKKTSQRLRSLVKQLERGEASVVDLKKNLEYAATVLESVYIDETRRLLDTEDELSDIQSDAVPSEVRDWLASTFTRQMGMMLRRSDEKPRFKSIVHAVQAGIFVERMYRRTSNMVGLSYPPAVIDALKDVDTWSFDVFSLNEASGDHALKFIFYELLTRYDLISRFKIPISALVSFVEALEVGYSKHKNPYHNLMHAADVTQTVHYLLYKTGVANWLTELEIFAIIFSAAIHDYEHTGTTNNFHIQTRSDPAILYNDRSVLENHHLSAAYRLLQEDEEMNILVNLSKDDWREFRTLVIEMVMATDMSCHFQQIKAMKTALQQPEAIEKPKALSLMLHTADISHPAKAWDLHHRWTMSLLEEFFRQGDREAELGLPFSPLCDRKSTMVAQSQVGFIDFIVEPTFTVLTDMTEKIVSPLIDESSQTGGTGQRRSSLNSINSSDAKRSGVKSSGSDGSAPINNSVIPVDYKSFKATWTEVVQINRERWRAKVPKEEKAKKEAEEKARLAAEEKQKEMEAKSQAEQGTTSKGEKKTSGEAKSQVNGTRKGDNPRGKNSKGEKAGEKQQNGDLKDGKNKADKKDHSNTGNESKKTDGTKKRSHGSPAPSTSSTSRITLPVIKPPLRHFKRPAYASSSYAPSVPKKTDDHPVRYKMLDQRIKMKKIQNISHHWNKK
modifications: full-length
Average logFC: 1.157
M1-1 Log2 Median Normalized: 0.73
M1-2 Log2 Median Normalized: 0.722
M2-1 Log2 Median Normalized: 1.3705
M2-2 Log2 Median Normalized: 1.805
change: up

B2: Q64176 (protein, UniProt Q64176 1-562, looked up)
chain: MCLSALILVSLAAFTAGAGHPSSPPMVDTVQGKVLGKYISLEGFTQPVAVFLGVPFAKPPLGSLRFAPPQPAEPWSSVKNATSYPPMCFQDPVTGQIVNDLLTNRKEKIPLQFSEDCLYLNIYTPADLTKSDRLPVMVWIHGGGLVLGGASTYDGLVLSTHENVVVVVIQYRLGIWGFFSTGDEHSRGNWGHLDQVAALHWVQDNIAKFGGDPGSVTIFGESAGGESVSVLVLSPLAKNLFQRAISESGVALTAGLVKKNTRPLAEKIAVISGCKNTTSAAMVHCLRQKTEEELLGTTLKLNLFKLDLHGDSRQSHPFVPTVLDGVLLPKMPEEILAEKNFNTVPYIVGINKQEFGWILPTMMNYPPSDVKLDQMTAMSLLKKSSFLLNLPEDAIAVAIEKYLRDKDYTGRNKDQLLELIGDVVFGVPSVIVSRGHRDAGAPTYMYEFQYSPSFSSEMKPDTVVGDHGDEIYSVFGAPILRGGTSEEEINLSKMMMKFWANFARNGNPNGQGLPHWPEYDQKEGYLQIGATTQQAQKLKEKEVAFWTELLAKKQLPTEHTEL
modifications: full-length
Average logFC: −1.21
M1-1 Log2 Median Normalized: −1.21
M1-2 Log2 Median Normalized: −1.557
M2-1 Log2 Median Normalized: −1.2065
M2-2 Log2 Median Normalized: −1.062
change: down

B3: Q62431 (protein, UniProt Q62431 1-601, looked up)
chain: MKLQAVMETLIQRQQRARQELEARQAPPPPPPEPTGVRARTTMTDEDREPENARMHRTQMAALAAMRAAAAGLGHPSSPGGSEDGPPISGDEDTAREGTLSSPALHGSVLEGAGHAEGDRHLMDVGSDDDDTKSKWEEQELEELGEEEEEEEEEDDFEEEEEEEEGLGPPESASLGTAGLFTRKAPPAQAFRGDGGPRMLSGPERLGPGPAHPSHMASQMPPPDHGDWTFEEQFKQLYELDADPKRKEFLDDLFSFMQKRGTPVNRIPIMAKQVLDLFMLYVLVTEKGGLVEVINKKLWREITKGLNLPTSITSAAFTLRTQYMKYLYPYECERRGLSSPNELQAAIDSNRREGRRQSFGGSLFAYSPSGAHSMLPSPKLPVTPLGLAASTNGSSITPAPKIKKEEDSAIPITVPGRLPVSLAGHPVVAAQAAAVQAAAAQAAVAAQAAALEQLREKLESTEPPEKKMALVADEQQRLMQRAVQQSFLAMTAQLPMNIRINSQASESRQDSAVSLTSANGSNSISMSVEMNGIVYTGVLFAQPPPPTAPSAPGKGGVSSIGTNTTTGSRTGASGSTVSGGQVGLPGVSTPTMSSTSNNSLP
modifications: full-length
Average logFC: 1.251
M1-1 Log2 Median Normalized: 1.672
M1-2 Log2 Median Normalized: 1.343
M2-1 Log2 Median Normalized: 1.2465
M2-2 Log2 Median Normalized: 0.741
change: up
